This note sets out measurements from patent US20210163580A1 (NATIONAL HEALTH RESEARCH INSTITUTES, published 2021).

No end group written: not given here. *: point of attachment. Biotin = O=C1N[C@H]2[C@H](CS[C@H]2CCCCC(=O)*)N1

Assay [1] addresses T1, recombinant human RSPO3 protein (human, UniProt Q9BXY4 22-272).
T1 construct: Used biotinylated on Octet sensors, immobilised on a CM5 chip in Biacore, and coated on ELISA plates; also called hRSPO3; huRSPO3
T1 sequence (looked up): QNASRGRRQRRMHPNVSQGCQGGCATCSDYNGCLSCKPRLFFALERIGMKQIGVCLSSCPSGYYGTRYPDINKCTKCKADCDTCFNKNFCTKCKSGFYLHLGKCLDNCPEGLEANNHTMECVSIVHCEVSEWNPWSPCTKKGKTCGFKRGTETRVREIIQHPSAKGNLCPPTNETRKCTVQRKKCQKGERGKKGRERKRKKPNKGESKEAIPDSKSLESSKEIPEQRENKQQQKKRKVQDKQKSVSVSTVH
As to the kind of experiment: BLI (Octet, ForteBio); biotinylated RSPO3 on streptavidin sensors. The method, then: The streptavidin-coated sensors were coated with 10 μg/ml of biotinylated RSPO3 as described in the handbook of ForteBio. Antibody concentrations were in the range of 0.75 and 93.8 nM. Quantitative kinetic binding analysis was performed with pH-adjusted PBS with 0.5% BSA. All steps were run at 30° C. with a continuous shaking speed at 1000 rpm.
To assess the RSPO3-binding affinities of the antibodies, kinetics assays were performed by the Octetsystems.

For assay [2], the target named is T2, RSPO1 (UniProt Q2MKA7 21-263, limits assumed). As to the kind of experiment: ELISA on coated antigen (BSA, RSPO1, RSPO2, RSPO3, RSPO4), absorbance 450 nm [A].
T2 sequence (Q2MKA7 21-263 limits assumed): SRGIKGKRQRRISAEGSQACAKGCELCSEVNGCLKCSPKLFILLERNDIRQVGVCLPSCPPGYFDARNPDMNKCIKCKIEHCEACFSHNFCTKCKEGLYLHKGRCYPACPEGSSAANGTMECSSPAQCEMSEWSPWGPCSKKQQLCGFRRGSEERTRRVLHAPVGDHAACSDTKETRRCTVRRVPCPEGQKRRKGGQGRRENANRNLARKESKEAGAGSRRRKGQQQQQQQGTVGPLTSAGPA
The target of assay [3] is T3, RSPO2 (UniProt Q6UXX9 22-243, limits assumed). The assay is described as above.
T3 sequence (Q6UXX9 22-243 limits assumed): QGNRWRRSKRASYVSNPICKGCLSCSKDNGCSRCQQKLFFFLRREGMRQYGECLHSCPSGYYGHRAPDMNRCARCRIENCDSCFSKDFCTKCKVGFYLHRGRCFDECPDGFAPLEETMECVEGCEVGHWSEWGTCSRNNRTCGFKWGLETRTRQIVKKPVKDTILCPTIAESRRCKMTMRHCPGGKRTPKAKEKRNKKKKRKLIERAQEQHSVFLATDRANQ
The target of assay [4] is T4, RSPO4 (UniProt Q2I0M5 20-234, limits assumed). Described as above.
T4 sequence (Q2I0M5 20-234 limits assumed): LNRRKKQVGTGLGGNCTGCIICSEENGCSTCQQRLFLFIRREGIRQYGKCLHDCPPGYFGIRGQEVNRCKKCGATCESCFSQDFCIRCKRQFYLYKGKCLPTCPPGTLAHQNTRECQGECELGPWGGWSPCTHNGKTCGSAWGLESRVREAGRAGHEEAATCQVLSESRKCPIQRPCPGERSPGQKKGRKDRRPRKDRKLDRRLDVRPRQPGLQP
Assay [5] has as its target T2, RSPO1. As to the kind of experiment: Western blot: RSPO1-4 on the blot, probed with the hybridoma antibody [A].
The target in assay [6] is T3, RSPO2. The description is as above.
The target of assay [7] is T4, RSPO4. Described as above.
The target in another assay is T5, RENKQQQKKR
T5 construct: member of the PepSet library m27
T5 peptide: Biotin-SGSGRENKQQQKKR
As to the kind of experiment: PepSet ELISA: biotinylated 10-mer on NeutrAvidin plate, antibody 10 µg/ml, OD450 [C]. The text has this:
(§1) FIG. 8 is a set of graphs showing mapping of the α-RSPO3 Ab epitopes on RSPO3 protein by Pep-set.
(§2) The deduced amino acid sequence of RSPO3 (GenBank accession no. NP_116173) was used as the reference sequence to design the PepSet library of biotinylated linear peptides that cover the mature domain of RSPO3. The 121 peptides synthesized by Mimotopes (Victoria, Australia) were 10 amino acids in length and offset by 2 residues in these two formats: Biotin-SGSG-PEPTIDE-NH2 for N-terminal peptide and Biotin-SGSG-PEPTIDE-OH for the C-terminal peptide. The peptides (1-3 mg) were dissolved in 200 microliter 80/20 DMSO/water mixture and further diluted at 1:200 in PBS containing 0.1% BSA and 0.1% sodium azide as working solution. In order to attach different biotinylated peptides on each well of the plates, plates coated with NeutrAvidin and blocked with BSA (Thermo Scientific Pierce, Rockford, Ill.) were utilized. Plates were washed three times with 1× PBS with 0.1% Tween 20 and then […] biotinylated peptide solution was applied to each well of plates. After one hour incubation at room temperature, plates were washed three times again with 1× PBST. α-RSPO3 antibodies at 10 μg/ml were then added to each well of plates and the plates were incubated with agitation for one hour. […] To detect bound anti-RSPO3 antibodies, Goat anti-human IgG-Fc-HPR was then applied to plates for one hour. After removing extra detection antibodies by washing the plates with 1× PBST, 100 μl Tetramethylbenzidine (TMB) substrate solution was added to each well for 20 minutes.

In a further assay the target is T6, ERGKKGRERK
T6 construct: member of the PepSet library m27
T6 peptide: Biotin-SGSGERGKKGRERK
The assay is described as above.
Text: as §1, §2

For a further assay, the target named is T7, GKKGRERKRK
T7 construct: member of the PepSet library m27
T7 peptide: Biotin-SGSGGKKGRERKRK
The description is as above.
Text: as §1, §2

The target in a further assay is T8, KGRERKRKKP
T8 construct: member of the PepSet library m27
T8 peptide: Biotin-SGSGKGRERKRKKP
The assay is described as above.
Text: as §1, §2

The target in assay [8] is T2, RSPO1. As to the kind of experiment: Western blot: RSPO1-4 on the blot, probed with the hybridoma antibody [B].
Assay [9] has as its target T3, RSPO2. The description is as above.
In assay [10] the target is T4, RSPO4. Described as above.
In assay [11] the target is T1, recombinant human RSPO3 protein. The experiment in a line: ELISA on coated antigen (BSA, RSPO1, RSPO2, RSPO3, RSPO4), absorbance 450 nm [B]. For orientation: An ELISA detects its analyte on a solid surface through an enzyme-linked reagent.
Assay [12] has the same target. As to the kind of experiment: cell-based or functional assay.
The target is the same in assay [13]. The experiment in a line: SPR (Biacore T200); hRSPO3 immobilised on CM5 chip, antibody injected, single-cycle, 1:1 model. How it is done:
FIG. 7 is a graph showing use of Biacore to measure the binding kinetics of α-RSPO3 Abs-antigen interaction. The binding sensorgrams were generated using a Biacore T200 and then fitted to a simple 1:1 interaction model. […] The association was monitored for 2 min, and the final dissociation time was 15 min hRSPO3 was immobilized on a CMS chip at 27.5 RU.
The binding kinetics between α-RSPO3 Abs and recombinant human RSPO3 protein (hRSPO3) were performed at 25° C. using a Biacore T200 biosensor equipped with a CMS Series S Sensor Chip (GE Healthcare). […] Obtained sensorgrams were corrected by double subtracting the signal obtained on a reference surface and the signal of the running buffer. Sensograms were fit globally with BIAcore T200 evaluation software 3.0 using 1:1 binding model to yield affinity constants (KD values) for α-RSPO3 Abs. Replicate measurements were made in separate experiments, using independently prepared α-RSPO3 Abs dilution series and huRSPO3-coated chip surfaces.
For orientation: SPR reads the build-up and loss of mass on a sensor chip optically.

B1: anti-RSPO3 hybridoma antibody A4 (antibody, IgG1, V domains shown)
VH: QVQLQESGAELAKPGASVKMSCKASGHTLTYYWMHWVKQRPGQGLEWIGYIDPSTGYSEYNQRFEGKATLTADKSSGTVYMQLSSLTSEDSAVYYCARNGPFAYWGQGTLVTVSA
VL: DNVLTQSPAIMSASPGEKVTMTCSASSSVNYMYWYQQKPGSSPRLLIYDTSKLASGVPVRFSGSGSGTSYSLTISRMEAEDAATYYCQQWSSSPLTFGVGAKLEIKR
notes: Murine hybridoma mAb; also called clone A4; hybridoma A4
Broadly, the Kd is a measure of binding affinity in units of concentration. By koff is commonly meant a measure of how fast the partners let go of each other. By kon is commonly meant a measure of how fast the partners come together. In the case of B1, in assay [1], the Kd worked out at 27 nM, the koff came out at 0.000884 s⁻¹ and the kon came to 32700 M⁻¹ s⁻¹. In the assay with RSPO1 [2], the binding result is “no binding”. For the same molecule, the binding result with RSPO2 [3] is “no binding”. The binding result in the assay with RSPO4 [4] was “no binding”.

B2: anti-RSPO3 hybridoma antibody A6 (antibody, IgG2a, V domains shown)
VH: QVQLQQSGAEIVRSGASVKLSCTASGFSITEYYIHWVKQRPDQGLEWIGMIDPENGDTDYAPKFQGKATMTADTSSNTVNLQLSSLTSEDTAVYYCHGPGPLEYWGQGTTLTVSS
VL: DIVMTQSPLSLPVSLGDQASISCRSSQSIVHSNGNTYLEWYLQKPGQSPNLLIYRVSNRFSGVPDRFNGSGSGTDFTLKISRVEPEDLGVYSCFQASHVPYTFGGGTKLEIKR
notes: Murine hybridoma mAb; also called clone A6; hybridoma A6
On to B2, for which the Kd in assay [1] is 10.4 nM. Further, in assay [1], the koff is 0.0025 s⁻¹. In addition, the kon in assay [1] came to 241000 M⁻¹ s⁻¹. Further, the binding result is recorded as “no binding” with RSPO1 [5]; “no binding” with RSPO2 [6]; “no binding” with RSPO4 [7]; “binds” in the assay with RENKQQQKKR; “binds” with ERGKKGRERK; “binds” in the assay with GKKGRERKRK. For the same molecule, the binding result with KGRERKRKKP is on record as “binds”.

B3: anti-RSPO3 hybridoma antibody B1 (antibody, IgG1, V domains shown)
VH: QIQLQESGPGLVKPSQSLSLTCSVTGYSITSGYYWNWIRQFPGNKLEWMGYISYDGTNNYNPSLKDRISITRDTSMNQFFLKLNSVTTEDTATYYCSVLLIQYFNIWGAGTTVTVSS
VL: DIQMTQSPASLSASVGETVTITCRTSESVNNFLAWFHQKQGKSPQLLVYHAKTLADGVSSRFSGSGSGTQYSLKINSLQPEDFGNYYCQHFWSIPWTFGGGTKLEIKR
notes: Murine hybridoma mAb; also called clone B1
On to B3, for which the binding result with RSPO1 [8] is reported as “no binding”; with RSPO2 [9] it was “no binding”; with RSPO4 [10] it was “no binding”; in [11], “binds”.

B4: rosmantuzumab (131R010) (antibody, V domains shown)
VH: QVQLVQSGAEVKKPGASVKVSCKASGYTFTDYSIHWVRQAPGQGLEWIGYIYPSNGDSGYNQKFKNRVTMTRDTSTSTAYMELSRLRSEDTAVYYCATYFANNFDYWGQGTTLTVSS
VL: DIQMTQSPSSLSASVGDRVTITCKASQSVDYDGDSYMNWYQQKPGKAPKLLIYAASNLESGVPSRFSGSGSGTDFTLTISPVQAEDFATYYCQQSNEDPLTFGAGTKLELK
In the case of B4, in assay [12], the “IC50 in the WNT reporter assay (MDA-MB436 TCF/LEF-Luc, Wnt3a plus hRSPO3)” value stood at 58.7 nM. In assay [13], the Kd was 0.02 nM, the koff amounted to 0.000181 s⁻¹ and the kon was 9.4e+06 M⁻¹ s⁻¹.

B5: reference anti-RSPO3 antibody 131R002 (antibody, V domains shown)
VH: QVQLQESGPELVKPGASVKISCKASGYTFTDYSIHWVKQNHGKSLDWIGYIYPSNGDSGYNQKFKNRATLTVDTSSSTAYLEVRRLTFEDSAVYYCATYFANYFDYWGQGTTLTVSS
VL: DIVLTQSPASLAVSLGQRATISCKASQSVDYDGDSYMNWYQQKPGQPPKLLIYAASNLESGIPARFSGSGSGTDFTLNIHPVEEEDAATYYCQQSNEDPLTFGAGTKLELKR
With B5, in assay [1], the Kd worked out at 1.93 nM, the koff was determined as 0.00202 s⁻¹ and the kon turned out to be 1.05e+06 M⁻¹ s⁻¹.
